Measured values taken from patent US20190233495A1 (Sanofi, published 2019).
Non-standard residues stand in square brackets, D forms with d. 1Nal = N[C@@H](Cc1cccc2ccccc12)C(=O)O; Nle = CCCC[C@H](N)C(=O)O; Aib = CC(C)(N)C(=O)O

T1: RXFP1 receptor (UniProt Q9HBX9 1-757, limits assumed)
T1 sequence (looked up): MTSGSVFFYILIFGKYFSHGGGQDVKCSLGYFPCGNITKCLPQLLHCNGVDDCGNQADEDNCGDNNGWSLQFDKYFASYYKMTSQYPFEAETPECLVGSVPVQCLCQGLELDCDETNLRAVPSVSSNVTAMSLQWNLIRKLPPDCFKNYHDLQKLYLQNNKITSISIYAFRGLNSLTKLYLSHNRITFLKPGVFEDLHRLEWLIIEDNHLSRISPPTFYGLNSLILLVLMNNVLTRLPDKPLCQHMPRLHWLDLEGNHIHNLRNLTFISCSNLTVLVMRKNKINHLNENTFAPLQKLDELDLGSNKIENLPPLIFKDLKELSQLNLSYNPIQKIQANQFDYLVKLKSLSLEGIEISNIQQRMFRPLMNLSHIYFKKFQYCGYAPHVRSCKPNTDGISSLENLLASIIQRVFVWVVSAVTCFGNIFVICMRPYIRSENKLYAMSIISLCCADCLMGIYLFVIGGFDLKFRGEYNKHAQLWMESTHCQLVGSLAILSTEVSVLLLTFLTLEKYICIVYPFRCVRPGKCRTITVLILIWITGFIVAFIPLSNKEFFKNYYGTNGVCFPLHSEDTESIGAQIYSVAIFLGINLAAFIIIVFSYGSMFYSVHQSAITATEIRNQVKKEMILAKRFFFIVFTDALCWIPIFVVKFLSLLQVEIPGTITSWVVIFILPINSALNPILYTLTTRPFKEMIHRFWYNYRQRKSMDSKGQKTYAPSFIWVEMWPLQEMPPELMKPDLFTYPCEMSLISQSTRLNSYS

B1: SEQ ID NO: 29 (peptide)
peptide: Ac-LEGREKVRAK(Ac)I[Aib][Aib]EG[Nle]ST[1Nal]S[Aib]RKK(Ac)-NH2
SMILES: CCCC[C@H](NC(=O)CNC(=O)[C@H](CCC(=O)O)NC(=O)C(C)(C)NC(=O)C(C)(C)NC(=O)[C@@H](NC(=O)[C@H](CCCCNC(C)=O)NC(=O)[C@H](C)NC(=O)[C@H](CCCNC(=N)N)NC(=O)[C@@H](NC(=O)[C@H](CCCCN)NC(=O)[C@H](CCC(=O)O)NC(=O)[C@H](CCCNC(=N)N)NC(=O)CNC(=O)[C@H](CCC(=O)O)NC(=O)[C@H](CC(C)C)NC(C)=O)C(C)C)[C@@H](C)CC)C(=O)N[C@@H](CO)C(=O)N[C@H](C(=O)N[C@@H](Cc1cccc2ccccc12)C(=O)N[C@@H](CO)C(=O)NC(C)(C)C(=O)N[C@@H](CCCNC(=N)N)C(=O)N[C@@H](CCCCN)C(=O)N[C@@H](CCCCNC(C)=O)C(N)=O)[C@@H](C)O
B2: SEQ ID NO: 31 (peptide)
peptide: Ac-LEGREKVRAK(Ac)I[Aib][Aib]EG[Nle]STWS[Aib]RKQ-NH2
SMILES: CCCC[C@H](NC(=O)CNC(=O)[C@H](CCC(=O)O)NC(=O)C(C)(C)NC(=O)C(C)(C)NC(=O)[C@@H](NC(=O)[C@H](CCCCNC(C)=O)NC(=O)[C@H](C)NC(=O)[C@H](CCCNC(=N)N)NC(=O)[C@@H](NC(=O)[C@H](CCCCN)NC(=O)[C@H](CCC(=O)O)NC(=O)[C@H](CCCNC(=N)N)NC(=O)CNC(=O)[C@H](CCC(=O)O)NC(=O)[C@H](CC(C)C)NC(C)=O)C(C)C)[C@@H](C)CC)C(=O)N[C@@H](CO)C(=O)N[C@H](C(=O)N[C@@H](Cc1c[nH]c2ccccc12)C(=O)N[C@@H](CO)C(=O)NC(C)(C)C(=O)N[C@@H](CCCNC(=N)N)C(=O)N[C@@H](CCCCN)C(=O)N[C@@H](CCC(N)=O)C(N)=O)[C@@H](C)O
B3: SEQ ID NO: 32 (peptide)
peptide: Ac-LEGREKVRAK(Ac)I[Aib][Aib]EG[Nle]STWS[Aib]RKL-NH2
SMILES: CCCC[C@H](NC(=O)CNC(=O)[C@H](CCC(=O)O)NC(=O)C(C)(C)NC(=O)C(C)(C)NC(=O)[C@@H](NC(=O)[C@H](CCCCNC(C)=O)NC(=O)[C@H](C)NC(=O)[C@H](CCCNC(=N)N)NC(=O)[C@@H](NC(=O)[C@H](CCCCN)NC(=O)[C@H](CCC(=O)O)NC(=O)[C@H](CCCNC(=N)N)NC(=O)CNC(=O)[C@H](CCC(=O)O)NC(=O)[C@H](CC(C)C)NC(C)=O)C(C)C)[C@@H](C)CC)C(=O)N[C@@H](CO)C(=O)N[C@H](C(=O)N[C@@H](Cc1c[nH]c2ccccc12)C(=O)N[C@@H](CO)C(=O)NC(C)(C)C(=O)N[C@@H](CCCNC(=N)N)C(=O)N[C@@H](CCCCN)C(=O)N[C@@H](CC(C)C)C(N)=O)[C@@H](C)O
B4: SEQ ID NO: 33 (peptide)
peptide: Ac-LEGREKVRK(Ac)QI[Aib][Aib]EG[Nle]STWS[Aib]RKK-NH2
SMILES: CCCC[C@H](NC(=O)CNC(=O)[C@H](CCC(=O)O)NC(=O)C(C)(C)NC(=O)C(C)(C)NC(=O)[C@@H](NC(=O)[C@H](CCC(N)=O)NC(=O)[C@H](CCCCNC(C)=O)NC(=O)[C@H](CCCNC(=N)N)NC(=O)[C@@H](NC(=O)[C@H](CCCCN)NC(=O)[C@H](CCC(=O)O)NC(=O)[C@H](CCCNC(=N)N)NC(=O)CNC(=O)[C@H](CCC(=O)O)NC(=O)[C@H](CC(C)C)NC(C)=O)C(C)C)[C@@H](C)CC)C(=O)N[C@@H](CO)C(=O)N[C@H](C(=O)N[C@@H](Cc1c[nH]c2ccccc12)C(=O)N[C@@H](CO)C(=O)NC(C)(C)C(=O)N[C@@H](CCCNC(=N)N)C(=O)N[C@@H](CCCCN)C(=O)N[C@@H](CCCCN)C(N)=O)[C@@H](C)O
B5: SEQ ID NO: 34 (peptide)
peptide: Ac-LEGREKVRK(Ac)[Aib]I[Aib][Aib]EG[Nle]STWS[Aib]RKK-NH2
SMILES: CCCC[C@H](NC(=O)CNC(=O)[C@H](CCC(=O)O)NC(=O)C(C)(C)NC(=O)C(C)(C)NC(=O)[C@@H](NC(=O)C(C)(C)NC(=O)[C@H](CCCCNC(C)=O)NC(=O)[C@H](CCCNC(=N)N)NC(=O)[C@@H](NC(=O)[C@H](CCCCN)NC(=O)[C@H](CCC(=O)O)NC(=O)[C@H](CCCNC(=N)N)NC(=O)CNC(=O)[C@H](CCC(=O)O)NC(=O)[C@H](CC(C)C)NC(C)=O)C(C)C)[C@@H](C)CC)C(=O)N[C@@H](CO)C(=O)N[C@H](C(=O)N[C@@H](Cc1c[nH]c2ccccc12)C(=O)N[C@@H](CO)C(=O)NC(C)(C)C(=O)N[C@@H](CCCNC(=N)N)C(=O)N[C@@H](CCCCN)C(=O)N[C@@H](CCCCN)C(N)=O)[C@@H](C)O
B6: SEQ ID NO: 35 (peptide)
peptide: Ac-LEGREKVRAQI[Aib][Aib]EGQSTWS[Aib]RKK-NH2
SMILES: CC[C@H](C)[C@H](NC(=O)[C@H](CCC(N)=O)NC(=O)[C@H](C)NC(=O)[C@H](CCCNC(=N)N)NC(=O)[C@@H](NC(=O)[C@H](CCCCN)NC(=O)[C@H](CCC(=O)O)NC(=O)[C@H](CCCNC(=N)N)NC(=O)CNC(=O)[C@H](CCC(=O)O)NC(=O)[C@H](CC(C)C)NC(C)=O)C(C)C)C(=O)NC(C)(C)C(=O)NC(C)(C)C(=O)N[C@@H](CCC(=O)O)C(=O)NCC(=O)N[C@@H](CCC(N)=O)C(=O)N[C@@H](CO)C(=O)N[C@H](C(=O)N[C@@H](Cc1c[nH]c2ccccc12)C(=O)N[C@@H](CO)C(=O)NC(C)(C)C(=O)N[C@@H](CCCNC(=N)N)C(=O)N[C@@H](CCCCN)C(=O)N[C@@H](CCCCN)C(N)=O)[C@@H](C)O
B7: SEQ ID NO: 4 (peptide)
peptide: Ac-LEGREKVRAQI[Aib][Aib]EGMSTWS[Aib]RKK-NH2
SMILES: CC[C@H](C)[C@H](NC(=O)[C@H](CCC(N)=O)NC(=O)[C@H](C)NC(=O)[C@H](CCCNC(=N)N)NC(=O)[C@@H](NC(=O)[C@H](CCCCN)NC(=O)[C@H](CCC(=O)O)NC(=O)[C@H](CCCNC(=N)N)NC(=O)CNC(=O)[C@H](CCC(=O)O)NC(=O)[C@H](CC(C)C)NC(C)=O)C(C)C)C(=O)NC(C)(C)C(=O)NC(C)(C)C(=O)N[C@@H](CCC(=O)O)C(=O)NCC(=O)N[C@@H](CCSC)C(=O)N[C@@H](CO)C(=O)N[C@H](C(=O)N[C@@H](Cc1c[nH]c2ccccc12)C(=O)N[C@@H](CO)C(=O)NC(C)(C)C(=O)N[C@@H](CCCNC(=N)N)C(=O)N[C@@H](CCCCN)C(=O)N[C@@H](CCCCN)C(N)=O)[C@@H](C)O
B8: SEQ ID NO: 36 (peptide)
peptide: Ac-LEGREKVRAQI[Aib][Aib]EG[Nle]SK[1Nal]SKR-NH2
SMILES: CCCC[C@H](NC(=O)CNC(=O)[C@H](CCC(=O)O)NC(=O)C(C)(C)NC(=O)C(C)(C)NC(=O)[C@@H](NC(=O)[C@H](CCC(N)=O)NC(=O)[C@H](C)NC(=O)[C@H](CCCNC(=N)N)NC(=O)[C@@H](NC(=O)[C@H](CCCCN)NC(=O)[C@H](CCC(=O)O)NC(=O)[C@H](CCCNC(=N)N)NC(=O)CNC(=O)[C@H](CCC(=O)O)NC(=O)[C@H](CC(C)C)NC(C)=O)C(C)C)[C@@H](C)CC)C(=O)N[C@@H](CO)C(=O)N[C@@H](CCCCN)C(=O)N[C@@H](Cc1cccc2ccccc12)C(=O)N[C@@H](CO)C(=O)N[C@@H](CCCCN)C(=O)N[C@@H](CCCNC(=N)N)C(N)=O
B9: SEQ ID NO: 37 (peptide)
peptide: Ac-LEGREKVRAQI[Aib][Aib]EG[Nle]ST[1Nal]SKR-NH2
SMILES: CCCC[C@H](NC(=O)CNC(=O)[C@H](CCC(=O)O)NC(=O)C(C)(C)NC(=O)C(C)(C)NC(=O)[C@@H](NC(=O)[C@H](CCC(N)=O)NC(=O)[C@H](C)NC(=O)[C@H](CCCNC(=N)N)NC(=O)[C@@H](NC(=O)[C@H](CCCCN)NC(=O)[C@H](CCC(=O)O)NC(=O)[C@H](CCCNC(=N)N)NC(=O)CNC(=O)[C@H](CCC(=O)O)NC(=O)[C@H](CC(C)C)NC(C)=O)C(C)C)[C@@H](C)CC)C(=O)N[C@@H](CO)C(=O)N[C@H](C(=O)N[C@@H](Cc1cccc2ccccc12)C(=O)N[C@@H](CO)C(=O)N[C@@H](CCCCN)C(=O)N[C@@H](CCCNC(=N)N)C(N)=O)[C@@H](C)O
B10: SEQ ID NO: 38 (peptide)
peptide: Ac-LEGREKVRAQI[Aib][Aib]EGMSKWSKR-NH2
SMILES: CC[C@H](C)[C@H](NC(=O)[C@H](CCC(N)=O)NC(=O)[C@H](C)NC(=O)[C@H](CCCNC(=N)N)NC(=O)[C@@H](NC(=O)[C@H](CCCCN)NC(=O)[C@H](CCC(=O)O)NC(=O)[C@H](CCCNC(=N)N)NC(=O)CNC(=O)[C@H](CCC(=O)O)NC(=O)[C@H](CC(C)C)NC(C)=O)C(C)C)C(=O)NC(C)(C)C(=O)NC(C)(C)C(=O)N[C@@H](CCC(=O)O)C(=O)NCC(=O)N[C@@H](CCSC)C(=O)N[C@@H](CO)C(=O)N[C@@H](CCCCN)C(=O)N[C@@H](Cc1c[nH]c2ccccc12)C(=O)N[C@@H](CO)C(=O)N[C@@H](CCCCN)C(=O)N[C@@H](CCCNC(=N)N)C(N)=O

Target: T1, RXFP1 receptor
Experiment: cell-based or functional assay

First: B1
Second: B2
The “cAMP assay in OVCAR 5 cells EC50” value of the first is 3.7-fold lower: 13.8 nM for the first, 51.7 nM for the second.

Compared with B3, B4 is 2.2-fold higher in “cAMP assay in OVCAR 5 cells EC50” value: 38.6 nM for the first, 86.3 nM for the second.

Going from B5 to B6, the “cAMP assay in OVCAR 5 cells EC50” value falls from 68.7 nM to 15.8 nM (4.3-fold).

First: B7
Second: B8
The “cAMP assay in OVCAR 5 cells EC50” value of the first is 9-fold lower: 14.1 nM for the first, 127 nM for the second.

Going from B9 to B10, the “cAMP assay in OVCAR 5 cells EC50” value falls from 52.4 nM to 10.7 nM (4.9-fold).

Going from B1 to B2, the “cAMP assay in OVCAR 5 cells Emax” value falls from 98% to 96%.

First: B3
Second: B4
The “cAMP assay in OVCAR 5 cells Emax” value of the first is lower: 95% for the first, 105% for the second.

First: B5
Second: B7
The “cAMP assay in OVCAR 5 cells Emax” value of the first is lower: 96% for the first, 99% for the second.

Going from B8 to B9, the “cAMP assay in OVCAR 5 cells Emax” value rises from 103% to 104%.

With B10 the “cAMP assay in OVCAR 5 cells Emax” value was 102%.
